Square brackets hold non-standard residues; d marks the D form. Side chains are listed from the residue outwards. Phe(2-F) = N[C@@H](Cc1ccccc1F)C(=O)O; αMeF = C[C@](N)(Cc1ccccc1)C(=O)O; Iva = CC[C@](C)(N)C(=O)O; Oda = not defined here; Aib = CC(C)(N)C(=O)O
T1: human GIPR (human, UniProt P48546 22-466)
T1 sequence (looked up): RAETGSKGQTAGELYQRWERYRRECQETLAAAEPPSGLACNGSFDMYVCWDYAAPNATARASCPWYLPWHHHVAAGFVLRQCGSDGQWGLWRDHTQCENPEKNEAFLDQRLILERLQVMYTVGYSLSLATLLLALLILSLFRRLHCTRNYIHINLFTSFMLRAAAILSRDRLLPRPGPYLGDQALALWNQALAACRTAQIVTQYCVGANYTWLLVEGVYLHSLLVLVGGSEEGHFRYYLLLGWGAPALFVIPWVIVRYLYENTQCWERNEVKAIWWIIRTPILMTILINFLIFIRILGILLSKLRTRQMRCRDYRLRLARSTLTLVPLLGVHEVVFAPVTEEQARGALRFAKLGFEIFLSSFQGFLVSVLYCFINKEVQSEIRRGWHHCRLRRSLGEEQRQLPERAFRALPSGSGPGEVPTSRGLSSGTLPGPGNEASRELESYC

T2: human NPY2R (human, UniProt P49146 1-381)
T2 sequence (looked up): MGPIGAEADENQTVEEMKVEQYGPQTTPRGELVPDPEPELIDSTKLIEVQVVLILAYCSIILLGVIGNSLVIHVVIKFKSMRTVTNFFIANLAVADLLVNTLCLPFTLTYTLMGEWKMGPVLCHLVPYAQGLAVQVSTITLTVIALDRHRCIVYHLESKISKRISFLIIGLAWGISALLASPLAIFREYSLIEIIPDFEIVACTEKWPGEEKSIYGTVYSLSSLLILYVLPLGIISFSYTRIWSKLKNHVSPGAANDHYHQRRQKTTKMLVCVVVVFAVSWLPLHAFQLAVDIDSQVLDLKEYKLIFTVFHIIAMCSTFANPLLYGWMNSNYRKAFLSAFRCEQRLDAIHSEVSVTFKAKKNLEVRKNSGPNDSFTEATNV


Tests used:
Test in all cases: cell-based or functional assay
human GLP-1R = human GLP-1R (human, UniProt P43220 24-463)
human GIPR = target: T1, human GIPR
human NPY2R = target: T2, human NPY2R

| Binder | Agonist activity (EC50), Cre-luc reporter assay (human GLP-1R) | Agonist activity (EC50), Cre-luc reporter assay (human GIPR) | Agonist activity (EC50), Cre-luc reporter assay (human NPY2R) |
| --- | --- | --- | --- |
| H-Y[Aib]EGT[αMeF]TSDK([Gly-Gly-Gly-Gly-Pal])SI[Aib]LDKQRQ[Iva]EFVRHLLNK[Aib]TRQRY-NH2 | 0.05 nM | 0.056 nM | 0.048 nM |
| H-Y[Aib]EGT[αMeF]TSDK([Gly-Gly-Gly-Gly-Pal])[Aib]I[Aib]LDKQRQ[Iva]EFVRHLLNK[Aib]TRQR[Phe(2-F)]-NH2 | 0.38 nM | 0.35 nM | 0.22 nM |
| H-Y[Aib]EGT[αMeF]TSDK([Gly-Gly-Gly-Gly-Oda])[Aib]I[Aib]LDKQAQ[Iva]EFVRHLLNK[Aib]TRQR[Phe(2-F)]-NH2 (reading uncertain; also: printed as H-Tyr-Aib-Glu-Gly-Thr-αMePhe-Thr-Ser-Asp-Lys(-Gly-Gly-Gly-Gly-Oda)-Aib-Ile-Aib-Leu-Asp-Lys-Gln-Ala-Gln-Iva-Glu-Phe-Val-Arg-His-Leu-Leu-Asn-Lys-Aib-Thr-Arg-Gln-Arg-Phe(2-F)-NH2) | 0.11 nM | 0.071 nM | 2.1 nM |
| H-Y[Aib]EGT[αMeF]TSDK([Gly-Gly-Gly-Gly-Oda])AI[Aib]LDKQRQ[Iva]EFVRHLLNK[Aib]TRQRY-NH2 (reading uncertain; also: printed as H-Tyr-Aib-Glu-Gly-Thr-αMePhe-Thr-Ser-Asp-Lys(-Gly-Gly-Gly-Gly-Oda)-Ala-Ile-Aib-Leu-Asp-Lys-Gln-Arg-Gln-Iva-Glu-Phe-Val-Arg-His-Leu-Leu-Asn-Lys-Aib-Thr-Arg-Gln-Arg-Tyr-NH2) | 1.2 nM | 0.26 nM | 3 nM |
| H-Y[Aib]EGT[αMeF]TSDK([Gly-Gly-Gly-Gly-Oda])SK[Aib]LDKQRQ[Iva]EFVRHLLNK[Aib]TRQRY-NH2 (reading uncertain; also: printed as H-Tyr-Aib-Glu-Gly-Thr-αMePhe-Thr-Ser-Asp-Lys(-Gly-Gly-Gly-Gly-Oda)-Ser-Lys-Aib-Leu-Asp-Lys-Gln-Arg-Gln-Iva-Glu-Phe-Val-Arg-His-Leu-Leu-Asn-Lys-Aib-Thr-Arg-Gln-Arg-Tyr-NH2) | 1.3 nM | 0.61 nM | 1.3 nM |
| H-Y[Aib]EGT[αMeF]TSDK([Gly-Gly-Gly-Gly-Pal])AI[Aib]LDKQRQ[Iva]EFVRHLLNK[Aib]TRQRY-NH2 | 0.079 nM | 0.066 nM | 0.099 nM |
| Me-Y[Aib]EGT[αMeF]TSDK([Gly-Gly-Gly-Gly-Pal])[Aib]K[Aib]LDKQRQ[Iva]EFVRHLLNK[Aib]TRQRY-NH2 | 0.069 nM | 0.051 nM | 0.068 nM |
| Me-Y[Aib]EGT[αMeF]TSDK([Gly-Gly-Gly-Gly-Oda])SI[Aib]LDKQRQ[Iva]EFVRHLLNK[Aib]TRQRY-NH2 (reading uncertain; also: printed as Me-Tyr-Aib-Glu-Gly-Thr-αMePhe-Thr-Ser-Asp-Lys(-Gly-Gly-Gly-Gly-Oda)-Ser-Ile-Aib-Leu-Asp-Lys-Gln-Arg-Gln-Iva-Glu-Phe-Val-Arg-His-Leu-Leu-Asn-Lys-Aib-Thr-Arg-Gln-Arg-Tyr-NH2) | 1.9 nM | 0.091 nM | 2.4 nM |
| H-Y[Aib]EGT[αMeF]TSDK([Gly-Gly-Gly-Gly-Oda])SI[Aib]LDKQRQ[Iva]EFVRHLLNK[Aib]TRQRY-NH2 (reading uncertain; also: printed as H-Tyr-Aib-Glu-Gly-Thr-αMePhe-Thr-Ser-Asp-Lys(-Gly-Gly-Gly-Gly-Oda)-Ser-Ile-Aib-Leu-Asp-Lys-Gln-Arg-Gln-Iva-Glu-Phe-Val-Arg-His-Leu-Leu-Asn-Lys-Aib-Thr-Arg-Gln-Arg-Tyr-NH2) | 0.47 nM | 0.11 nM | 2.6 nM |
| Me-Y[Aib]EGT[αMeF]TSDK([Gly-Gly-Gly-Gly-Pal])AI[Aib]LDKQRQ[Iva]EFVRHLLNK[Aib]TRQRY-NH2 | 0.1 nM | 0.074 nM | 0.1 nM |
| H-Y[Aib]EGT[αMeF]TSDK([Gly-Gly-Gly-Gly-Pal])[Aib]K[Aib]LDKQRQ[Iva]EFVRHLLNK[Aib]TRQRY-NH2 | 0.06 nM | 0.044 nM | 0.064 nM |
| Me-Y[Aib]EGT[αMeF]TSDK([Gly-Gly-Gly-Gly-Oda])AI[Aib]LDKQRQ[Iva]EFVRHLLNK[Aib]TRQRY-NH2 (reading uncertain; also: printed as Me-Tyr-Aib-Glu-Gly-Thr-αMePhe-Thr-Ser-Asp-Lys(-Gly-Gly-Gly-Gly-Oda)-Ala-Ile-Aib-Leu-Asp-Lys-Gln-Arg-Gln-Iva-Glu-Phe-Val-Arg-His-Leu-Leu-Asn-Lys-Aib-Thr-Arg-Gln-Arg-Tyr-NH2) | 4.4 nM | 0.17 nM | 3.2 nM |
| H-Y[Aib]EGT[αMeF]TSDK([Gly-Gly-Gly-Gly-Pal])SK[Aib]LDKQRQ[Iva]EFVRHLLNK[Aib]TRQRY-NH2 | 0.13 nM | 0.091 nM | 0.059 nM |
| Me-Y[Aib]EGT[αMeF]TSDK([Gly-Gly-Gly-Gly-Pal])SI[Aib]LDKQRQ[Iva]EFVRHLLNK[Aib]TRQRY-NH2 | 0.049 nM | 0.05 nM | 0.081 nM |
| Me-Y[Aib]EGT[αMeF]TSDK([Gly-Gly-Gly-Gly-Oda])[Aib]I[Aib]LDKQRQ[Iva]EFVRHLLNK[Aib]TRQRY-NH2 (reading uncertain; also: printed as Me-Tyr-Aib-Glu-Gly-Thr-αMePhe-Thr-Ser-Asp-Lys(-Gly-Gly-Gly-Gly-Oda)-Aib-Ile-Aib-Leu-Asp-Lys-Gln-Arg-Gln-Iva-Glu-Phe-Val-Arg-His-Leu-Leu-Asn-Lys-Aib-Thr-Arg-Gln-Arg-Tyr-NH2) | 1.4 nM | 0.25 nM | 2 nM |
| H-Y[Aib]EGT[αMeF]TSDK([Gly-Gly-Gly-Gly-Oda])[Aib]K[Aib]LDKQRQ[Iva]EFVRHLLNK[Aib]TRQRY-NH2 (reading uncertain; also: printed as H-Tyr-Aib-Glu-Gly-Thr-αMePhe-Thr-Ser-Asp-Lys(-Gly-Gly-Gly-Gly-Oda)-Aib-Lys-Aib-Leu-Asp-Lys-Gln-Arg-Gln-Iva-Glu-Phe-Val-Arg-His-Leu-Leu-Asn-Lys-Aib-Thr-Arg-Gln-Arg-Tyr-NH2) | 0.94 nM | 1 nM | 1.5 nM |
